The values below come from patent US20190359693A1 (Janssen / Centocor, published 2019).

One test has as its target HA of H3N2 A/HK/1/68-MA (influenza A virus). The test can be described thus: cell-based or functional assay.
Test [1] addresses HA of H1N1 A/Puerto Rico/8/34-MA (influenza A virus). Nature of the test: cell-based or functional assay.
For test [2], the target named is hemagglutinin (HA) of influenza B/Brisbane/60/08 (Victoria) (influenza B virus). Nature of the test: cell-based or functional assay.
For test [3], the target named is HA of B/Harbin/7/94 (Yamagata) (influenza B virus). Nature of the test: cell-based or functional assay.
For test [4], the target named is HA of B/Malaysia/2506/04 (Victoria) (influenza B virus). The test can be described thus: cell-based or functional assay.
For test [5], the target named is recombinant HA of H1N1 A/New Caledonia/20/1999 (influenza A virus, UniProt Q289M7 18-565). Nature of the test: biolayer interferometry (Octet), steady-state fit, geometric mean.
For test [6], the target named is hemagglutinin (HA) of influenza virus H3N2 A/Wisconsin/67/05 (influenza A virus). Nature of the test: cell-based or functional assay.
The target of test [7] is hemagglutinin (HA) of influenza virus H1N1 A/California/07/09 (influenza A virus). Nature of the test: cell-based or functional assay.
In test [8] the target is hemagglutinin (HA) of influenza virus H5N1 A/Vietnam/1194/04 (influenza A virus). The test can be described thus: cell-based or functional assay.
Test [9] concerns the target hemagglutinin (HA) of influenza virus H1N1 A/Puerto Rico/8/34-MA (influenza A virus). Nature of the test: cell-based or functional assay.

Positions count from the first letter of the chain named.

B1: SD1049 (VHH)
VHH: EVQLVESGGGLVQAGGSLRLSCAASGRTLSLYSVGWFRQAPGKEREFVATIGWNSGRTFYVDSMKGRFTISRDNAKNTVYLQMNDLKVEDTAVYYCAAAKGPLRLSNQADYWGQGTQVTVSS
On to B1, for which the VNA titer is 76.1 nM with HA of H3N2 A/HK/1/68-MA and above 1000 nM in test [1].

B2: SD1087 (VHH)
VHH: EVQLVESGGGLVQPGGSLRLSCVISGLSLDTYAVGWFRQAPGKEREGITCISSGHGMTYYADSVKGRFTVSTDNAKNTVYLQMNGLQPEDTARYYCATESRYYCSDNWPAPQRYIYWGQGTQVTVSS
B2: the “VNA IC50” value in test [2] was found to be 34 nM.

B3: SD3070 (VHH)
VHH: B2 VHH with V23A, M57I, A75S, V79L, G85S, Q87R, P88A, R93V, Q122L
Take B3: in test [2], the “VNA IC50” value was above 1000 nM.

B4: SD3054 (VHH)
VHH: B2 VHH with V23A, I24A, V34M, G35S, M57I, V70I, T72R, A75S, V79L, G85S
For the molecule B4, the “VNA IC50” value in test [2] was above 1000 nM.

B5: SD3073 (VHH)
VHH: B2 VHH with V23A, I48V, T49S, A75S, V79L, G85S, Q87R, P88A, R93V, Q122L
As for B5, the “VNA IC50” value in test [2] was 28 nM.

B6: SD3056 (VHH)
VHH: B2 VHH with V23A, I24A, V34M, G35S, M57F, V70I, T72R, A75S, V79L, G85S
With B6, the “VNA IC50” value in [2] is above 1000 nM.

B7: SD3074 (VHH)
VHH: B2 VHH with V23A, V70I, A75S, V79L, G85S, Q87R, P88A, R93V, Q122L
On to B7, for which the “VNA IC50” value in test [2] came out at 36 nM.

B8: SD3071 (VHH)
VHH: B2 VHH with V23A, M57L, A75S, V79L, G85S, Q87R, P88A, R93V, Q122L
B8: in [2], the “VNA IC50” value was above 1000 nM.

B9: SD3093 (VHH)
VHH: B2 VHH with V23A, I48V, T49S, V70I, A75S, G85S, Q87R, P88A, R93V, Q122L
Regarding B9, in test [2], the “VNA IC50” value turned out to be 32 nM.

B10: SD3069 (VHH)
VHH: B2 VHH with V23A, A75S, V79L, G85S, Q87R, P88A, R93V, Q122L
Take B10: the “VNA IC50” value in test [2] stood at 56 nM.

B11: SD3055 (VHH)
VHH: B2 VHH with V23A, I24A, V34M, G35S, M57L, V70I, T72R, A75S, V79L, G85S
In the case of B11, the “VNA IC50” value in test [2] is above 1000 nM.

B12: SD3050 (VHH)
VHH: B2 VHH with V23A, I24A, V34M, G35S, V70I, T72R, A75S, V79L, G85S
As to B12, the “VNA IC50” value in [2] was above 1000 nM.

B13: SD3072 (VHH)
VHH: B2 VHH with V23A, I24A, A75S, V79L, G85S, Q87R, P88A, R93V, Q122L
For the molecule B13, the “VNA IC50” value in test [2] stood at 160 nM.

B14: SD1083 (VHH)
VHH: EVQLVESGGGLVQPGGSLRLSCAATGFTLENKAIGWFRQTPGSEREGVLCISKSGSWTYYTDSMRGRFTISRDNAENTVYLQMDSLKPEDTAVYYCATTTAGGGLCWDGTTFSRLASSWGQGTQVTVSS
For B14, the “VNA IC50” value in test [2] amounted to 174 nM.

B15: SD3007 (VHH)
VHH: EVQLLESGGGLVQPGGSLRLSCAASGFTLENKAIGWFRQAPGKEREGVSCISKSGSWTYYADSVKGRFTISRDNSKNTVYLQMNSLRAEDTAVYYCATTTAGGGLCWDGTTFSRLASSWGQGTQVTVSS
With B15, the “VNA IC50” value in test [2] is above 1000 nM.

B16: SD3010 (VHH)
VHH: B15 VHH with S49L, V79L
For B16, the “VNA IC50” value in [2] stood at 149 nM.

B17: SD3088 (VHH)
VHH: B15 VHH with S49L, V79L, Q124L
Regarding B17, the “VNA IC50” value in test [2] turned out to be 101 nM.

B18: SD3011 (VHH)
VHH: B15 VHH with S49L
As to B18, the “VNA IC50” value in test [2] is 53 nM.

B19: SD3087 (VHH)
VHH: B15 VHH with S49L, A88P, Q124L
Consider B19, for which, in [2], the “VNA IC50” value is 32 nM.

B20: SD3008 (VHH)
VHH: B15 VHH with A88P
On to B20, for which the “VNA IC50” value in test [2] is above 1000 nM.

B21: SD3012 (VHH)
VHH: B15 VHH with S49L, A88P
As for B21, the “VNA IC50” value in [2] worked out at 59 nM.

B22: SD3009 (VHH)
VHH: B15 VHH with I34M, G35S, S49L, V79L
In the case of B22, the “VNA IC50” value in [2] was 194 nM.

B23: SD1086 (VHH)
VHH: EVQLVESGGGLVQAGGSLRLSCTASGSISSIDYMRWYRQYPGKHRELVATITSGGAADSRDSVKGRFTVSRGNAANTMYLQMNNLKPEDTAVYYCNAYGLEIGAHWGRGTQVTVSS
For B23, the VNA titer in [3] and in test [4] was above 1000 nM in each case.

B24: MD1209 (VHH)
chain: EVQLVESGGGLVQAGGSLKLSCAASGRTYAMGWFRQAPGKEREFVAHINALGTRTYYSDSVKGRFTISRDNAKNTEYLEMNNLKPEDTAVYYCTAQGQWRAAPVAVAAEYEFWGQGTQVTVSSAAAGGGGSGGGGSGGGGSGGGGSGGGGSGGGGSGGGGSEVQLVESGGGLVQAGGSLKLSCAASGRTYAMGWFRQAPGKEREFVAHINALGTRTYYSDSVKGRFTISRDNAKNTEYLEMNNLKPEDTAVYYCTAQGQWRAAPVAVAAEYEFWGQGTQVTVSS
By Kd is commonly meant the equilibrium constant for the complex coming apart. Regarding B24, in [5], the Kd came to 1.9 nM. Besides, the neutralization titer in test [6] is 109 nM; in [7], 10.1 nM; in test [8], below 1000 nM; in test [9] it was 221 nM.

B25: SD1084 (VHH)
VHH: EVQLVESGGGLVQPGGSLKLSCAASGFTFSTSWMYWLRQAPGKGLEWVSVINTDGGTYYADSVKDRFTISRDNAKDTLYLQMSSLKSEDTAVYYCAKDWGGPEPTRGQGTQVTVSS
With B25, the “VNA IC50” value in test [2] is 12 nM.

B26: SD3004 (VHH)
VHH: B25 VHH with K19R, D65G, A74S, S83N, K86R, S87A
Take B26: the “VNA IC50” value in test [2] stood at 5 nM.

B27: SD3001 (VHH)
VHH: B25 VHH with K19R, Y35S, D65G, A74S, D76N, S83N, K86R, S87A
For B27, in test [2], the “VNA IC50” value was 101 nM.

B28: SD3085 (VHH)
VHH: B25 VHH with K19R, D65G, A74S, D76N, S83N, K86R, S87A, Q111L
Consider B28, for which the “VNA IC50” value in test [2] worked out at 12 nM.

B29: SD3086 (VHH)
VHH: B25 VHH with K19R, L37V, D65G, A74S, D76N, S83N, K86R, S87A, Q111L
On to B29, for which the “VNA IC50” value in test [2] was 40 nM.

B30: SD3003 (VHH)
VHH: B25 VHH with K19R, Y35S, D65G, A74S, S83N, K86R, S87A
As for B30, the “VNA IC50” value in test [2] was 101 nM.

B31: SD3002 (VHH)
VHH: B25 VHH with K19R, D65G, A74S, D76N, S83N, K86R, S87A
For B31, the “VNA IC50” value in [2] came to 5 nM.

B32: SD3049 (VHH)
VHH: EVQLVESGGGLVQPGGSLRLSCAASGLSLDTYAMSWFRQAPGKEREGVSCISSGHGMTYYADSVKGRFTISRDNSKNTLYLQMNSLQPEDTARYYCATESRYYCSDNWPAPQRYIYWGQGTQVTVSS
For the molecule B32, the “VNA IC50” value in test [2] was above 1000 nM.

B33: SD3104 (VHH)
VHH: B32 VHH with A24I, M34V, S35G, M57N, R72T, Q87R, P88A, R93V, Q122L
With B33, in [2], the “VNA IC50” value was above 1000 nM.

B34: SD3092 (VHH)
VHH: B32 VHH with A24I, M34V, S35G, R72T, Q87R, P88A, R93V, Q122L
Regarding B34, the “VNA IC50” value in test [2] was 51 nM.

B35: SD3051 (VHH)
VHH: B32 VHH with M57I
Regarding B35, the “VNA IC50” value in test [2] is above 1000 nM.

B36: SD3101 (VHH)
VHH: B32 VHH with A24I, M34V, S35G, M57S, R72T, Q87R, P88A, R93V, Q122L
B36: the “VNA IC50” value in test [2] is above 1000 nM.

B37: SD3053 (VHH)
VHH: B32 VHH with M57F
Turning to B37, the “VNA IC50” value in test [2] was above 1000 nM.

B38: SD3076 (VHH)
VHH: B32 VHH with M34V, S35G, M57L, R72T, Q87R, P88A, R93V, Q122L
Take B38: the “VNA IC50” value in test [2] was above 1000 nM.

B39: SD3103 (VHH)
VHH: B32 VHH with A24I, M34V, S35G, M57D, R72T, Q87R, P88A, R93V, Q122L
Take B39: the “VNA IC50” value in test [2] is above 1000 nM.

B40: SD3100 (VHH)
VHH: B32 VHH with A24I, M34V, S35G, M57A, R72T, Q87R, P88A, R93V, Q122L
B40: the “VNA IC50” value in test [2] is above 1000 nM.

B41: SD3052 (VHH)
VHH: B32 VHH with M57L
For the molecule B41, the “VNA IC50” value in test [2] was above 1000 nM.

B42: SD3075 (VHH)
VHH: B32 VHH with M34V, S35G, M57I, R72T, Q87R, P88A, R93V, Q122L
Take B42: the “VNA IC50” value in [2] is above 1000 nM.

B43: SD3102 (VHH)
VHH: B32 VHH with A24I, M34V, S35G, M57Q, R72T, Q87R, P88A, R93V, Q122L
B43: in [2], the “VNA IC50” value is above 1000 nM.
